# Measured values taken from PMC4027190.
# Assay: western blot (and ELISA for N38S) of culture media
# Conditions: glycan lost; control: wild type
protein,measurement,value
matrix metalloproteinase-9 (MMP-9): mS38 (protein) parent chain: MSLWQPLVLVLLVLGCCFAAPRQRQSTLVLFPGDLRTNLTDRQLAEEYLYRYGYTRVAEMRGESKSLGPALLLLQKQLSLPETGELDSATLKAMRTPRCGVPDLGRFQTFEGDLKWHHHNITYWIQNYSEDLPRAVIDDAFARAFALWSAVTPLTFTRVYSRDADIVIQFGVAEHGDGYPFDGKDGLLAHAFPPGPGIQGDAHFDDDELWSLGKGVVVPTRFGNADGAACHFPFIFEGRSYSACTTDGRSDGLPWCSTTANYDTDDRFGFCPSERLYTQDGNADGKPCQFPFIFQGQSYSACTTDGRSDGYRWCATTANYDRDKLFGFCPTRADSTVMGGNSAGELCVFPFTFLGKEYSTCTSEGRGDGRLWCATTSNFDSDKKWGFCPDQGYSLFLVAAHEFGHALGLDHSSVPEALMYPMYRFTEGPPLHKDDVNGIRHLYGPRPEPEPRPPTTTTPQPTAPPTVCPTGPPTVHPSERPTAGPTGPPSAGPTGPPTAGPSTATTVPLSPVDDACNVNIFDAIAEIGNQLYLFKDGKYWRFSEGRGSRPQGPFLIADKWPALPRKLDSVFEERLSKKLFFFSGRQVWVYTGASVLGPRRLDKLGLGADVAQVTGALRSGRGKMLLFSGRRLWRFDVKAQMVDPRSASEVDRMFPGVPLDTHDVFQYREKAYFCQDRFYWRVSSRSELNQVDQVGYVTYDILQCPED,expression_or_secretion,no change
